Columns and labels:
human PD-L1 [1] = molecular target: T1, human PD-L1 (human, UniProt Q9NZQ7 19-290); test: flow cytometry, SCC152 cells transduced with human PD-L1, anti-human Fc detection
T1 construct: whole, on cells
Procedure: (§1) Binding affinity to CD28 was determined using primary human T cells which endogenously express CD28. Binding to PD-L1 was determined using SCC152 cells transduced with human PD-L1. Binding to CTLA-4 was measured using Chinese hamster ovary (CHO) cells stably transduced to express human CTLA-4.
(§2) For staining and analysis by flow cytometry, 75,000 human T cells, SCC152/PD-L1 cells, or CHO/CTLA-4 cells were plated in 96-well round-bottom plates. Cells were spun down and resuspended in staining buffer (PBS (phosphate buffered saline), 1% BSA (bovine serum albumin), 1 mM EDTA, and 0.1% sodium azide) for 20 minutes to block non-specific binding. Afterwards, cells were centrifuged, stain buffer aspirated, and then resuspended in 50 μL of a 1:5 serial dilution of each CD80-Fc candidate variant starting at 100 nM ending at 0.8 nM. Primary staining was performed on ice for 60 minutes, before washing cells in […] staining buffer three times. PE-conjugated anti-human Fc (Jackson ImmunoResearch, USA) was diluted 1:250 in 50 μL staining buffer and added to cells and incubated another 30 minutes at 4° C. Cells were washed two times in 150 μL stain buffer and then fixed in 2% formaldehyde/PBS for 5 minutes at room temperature. Samples were analyzed CytoFLEX LX flow cytometer (Beckman Coulter, USA). Median Fluorescence Intensity (MFI) was calculated for each cell type using the CytExpert software from Beckman Coulter.
(§3) Binding assays were carried out to assess the specificity and affinity of multivalent proteins to cell-expressed CTLA-4, CD28, and PD-L1 counter structures.

human PD-L1 [2] = molecular target: T1, human PD-L1; test: flow cytometry, SCC152 cells transduced with human PD-L1; MFI against WT CD80 ECD-Fc
Procedure: as §1, §2, §3

T1 sequence (Q9NZQ7 19-290): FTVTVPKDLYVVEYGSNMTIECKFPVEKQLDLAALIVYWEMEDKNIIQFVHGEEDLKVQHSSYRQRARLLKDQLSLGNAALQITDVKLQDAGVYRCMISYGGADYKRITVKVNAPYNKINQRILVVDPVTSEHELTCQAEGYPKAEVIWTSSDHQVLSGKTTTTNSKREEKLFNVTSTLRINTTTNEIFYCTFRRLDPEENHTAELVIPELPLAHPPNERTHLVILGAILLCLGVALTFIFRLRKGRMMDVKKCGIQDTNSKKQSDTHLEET

Anti-Human Fc (MFI) at 0.8 nM (human PD-L1 [1]): 4750 MFI
Anti-Human Fc (MFI) at 4 nM (human PD-L1 [1]): 6410 MFI
Anti-Human Fc (MFI) at 20 nM (human PD-L1 [1]): 7100 MFI
Anti-Human Fc (MFI) at 100 nM (human PD-L1 [1]): 7810 MFI
Fold change vs WT CD80 @20 nM (human PD-L1 [2]): 10.4 fold
B1: CD80-Fc-CD80_341 (CD80_197 V11Y/E35D/Y87Q/T101R) (Fc fusion)
chain: VIHVTKEVKEYATLSCGHNVSVEELAQTRIYWQKDKKMVLTMMSGDMNIWPEYKNRTIFDITNNLSIVILALRPSDEGTYECVVLKQEKDAFKREHLAEVRLSVKADGSGGGGSPCPPCPAPEFLGGPSVFLFPPKPKDTLMISRTPEVTCVVVDVSQEDPEVQFNWYVDGVEVHNAKTKPREEQFNSTYRVVSVLTVLHQDWLNGKEYKCKVSNKGLPSSIEKTISKAKGQPREPQVYTLPPSQEEMTKNQVSLTCLVKGFYPSDIAVEWESNGQPENNYKTTPPVLDSDGSFFLYSRLTVDKSRWQEGNVFSCSVMHEALHNHYTQKSLSLSLGGGGGSGGGGSGGGGSVIHVTKEVKEYATLSCGYNVSVEELAQTRIYWQKDKKMVLTMMSGDMNIWPEYKNRTIFDITNNLSIVILALRPSDEGTYECVVLKQEKDAFKREHLAEVRLSVKAD
notes: tetravalent
